In patent US6348573B1, “Compositions and methods for identifying apoptosis signaling pathway inhibitors and activators” (The Regents of the University of Michigan, priority 1998, dated 2002):

What was measured:
[1] = test system: 293T cells; experiment: Apoptosis assay, CIDE transfection; assay type: cell-based, human
Protocol: Apoptosis Assays, fluorescence staining of nuclear DNA and DNA fragmentation assay: 5×10^5 293T cells were co-transfected with 0.2 μg of pcDNA3-β-gal plus each expression plasmid in triplicate by the calcium phosphate method as reported [N. Inohara et al, “CLARP, a death effector domain-containing protein interacts with caspase-8 and regulates apoptosis,” Proc. Natl. Acad. Sci. USA 94:10717-10722 (1997a)].
MCF7 were cotransfected with vector control or CIDE-A and β-galactosidase-expressing reporter construct by Lipofectamine (Gibco BRL) according to the manufacturer's instructions. In some experiments, 20 μM zVAD-fmk (benzyloxycarbonyl-Val-Ala-Asp-(OMe)-fluoromethylketone), zFA-fmk (benzyloxycarbonyl-Phe-Ala-(OMc)-fluoromethylketone) and zDEVD-fmk (benzyloxycarbonyl-Asp-Glu-Val-Asp-(OMe)-fluoromethylketone) were added into medium at 8 hr after transfection. zFA-fmk, zVAD-fmk and zDEVD-fmk were obtained from Enzyme Systems. At 24 hours after transfection, cells were fixed, stained for β-galactosidase as described [N. Inohara et al., “CLARP, a death effector domain-containing protein interacts with caspase-8 and regulates apoptosis,” Proc. Natl. Acad. Sci. USA 94:10717-10722 (1997a)] and assayed for morphological features of apoptosis. At least 300 hundred blue-staining cells were counted. Statistical significance was determined by one-way ANOVA followed by Student-Neuman-Keuls post-doc comparisons.
Nuclear staining with acridine-orange was performed as described [N. Inohara et al., “harakiri, a novel regulator of cell death, encodes a protein that activates apoptosis and interacts selectively with survival-promoting proteins Bcl-2 and Bcl-XL.,” EMBO J. 16:1686-1694 (1997b)]. Genomic DNA was extracted and analyzed for DNA fragmentation as described [X. Liu et al., “Apaf-1, a human protein homologous to C. elegans CED-4, participates in cytochrome c-dependent activation of caspase-3,” Cell 90:405-413 (1997)].

[2] = test system: 293T cells; experiment: β-galactosidase apoptosis assay, ARC co-transfection; assay type: cell-based, human
Protocol: Briefly, 2 μg of pcDNA3 or pcDNA3-ARC-Flag or -HA was co-transfected with 3 μg of pcDNA3 or caspase expression plasmids. Total amount of transfected plasmid DNA was always 5 μg. 293T cells were harvested after 22 hr and lysed with 0.2% NP-40 isotonic lysis buffer [Z. N. Oltvai et al., Cell 74:609-619 (1993)]. For immunoprecipitation, […] of soluble protein was incubated with 10 μg/ml of polyclonal anti-Flag, monoclonal anti-AU1 or polyclonal anti-HA antibody for 2 hr at 4° C. and tagged proteins were immunoprecipitated with Protein A-Sepharose 4B (Zymed Laboratories Inc., San Francisco, Calif.). Immunoprecipitates were subjected to 12% SDS-polyacrylamide electrophoresis and immunoblotted with anti-Flag, anti-AU1 or anti-HA antibodies. β-galactosidase apoptosis assay and Caspase-8 enzymatic assay: 5×10^5 293T cells were transfected with 0.3 μg of pcDNA3-β-gal plus each expression plasmid in triplicate. Cells were fixed 16 hrs after transfection, stained for β-galactosidase and assayed for morphological features of apoptosis [M. Muira et al., Cell 75:653-660 (1993)]. Statistical significance was determined by one-way ANOVA followed by Student-Neuman-Keuls post-doc comparisons. For caspase-8 enzymatic assay, 1.5×10^6 human 293T cells were co-transfected with pcDNA3, pcDNA3-ARC-Flag, pcDNA3-caspase-8 and pcDNA3-caspase-8-mt by a calcium phosphate method. Total amount of transfected plasmid DNA was always 2.5 μg. 293T cells were harvested 18hr after transfection and lysed with 0.2% NP-40 isotonic lysis buffer. Tagged proteins were immunoprecipitated and caspase activity was measured as described [N. Inohara et al., Proc. Natl. Acad. Sci. USA 94:10717-10722 (1997)].

COC(=O)CC[C@H](NC(=O)[C@H](CC(=O)OC)NC(=O)OCc1ccccc1)C(=O)N[C@H](C(=O)N[C@@H](CC(=O)OC)C(=O)CF)C(C)C [zDEVD-fmk, benzyloxycarbonyl-Asp-Glu-Val-Asp-(OMe)-fluoromethylketone, reference compound]
killing activity of CIDE-A in presence of caspase inhibitors [1]: unaffected

B1: truncated form of ARC: truncated form of ARC that expressed the CARD domain (amino acid 1-106) (protein, UniProt O60936 1-106, looked up, fragment)
chain: MGNAQERPSETIDRERKRLVETLQADSGLLLDALLARGVLTGPEYEALDALPDAERRVRRLLLLVQGKGEAACQELLRCAQRTAGAPDPAWDWQHVGPGYRDRSYD
ability to suppress apoptosis induced by caspase-4, compared with full length ARC [2]: no significant difference | ability to suppress apoptosis induced by caspase-8, compared with full length ARC [2]: no significant difference

B2: CIDE-A (108-200): CIDE-A mutant containing the C-terminal half (protein, UniProt O70302 108-200, looked up, fragment)
chain: WTPGSKYVPVCKQPKKSGIARVTFDLYRLNPKDFLGCLNVKATMYEMYSVSYDIRCTSFKAVLRNLLRFMSYAAQMTGQFLVYAGTYMLRVLG
induction of apoptosis (killing) of 293T cells by expression ([1]; 293T cells): capable of inducing apoptosis | killing activity compared with wild-type CIDE-A ([1]; 293T cells): greater

B3: CIDE-A (1-107): CIDE-A mutant containing the N-terminal half with homology to DFF45 (protein, UniProt O70302 1-107, looked up, fragment)
chain: METARDYAGALIRPLTFMGLQTKKVLLTPLIHPARPFRVSNHDRSSRRGVMASSLQELISKTLDVLVITTGLVTLVLEEDGTVVDTEEFFQTLRDNTHFMILEKGQK
induction of apoptosis (killing) of 293T cells by expression ([1]; 293T cells): did not | inhibition of CIDE-A-induced apoptosis by DFF45 ([1]; 293T cells, co-expression): antagonized
